Here are results for eight molecules from patent publication US20210054049A1 (MERUS N V, published 2021).

The labels stand for the following.
B1: PB27538p43 (bispecific antibody)
heavy (part 1 of 2) 1: EVQLVETGGGVVQPGRSLRLSCAASGFTFSQYAMHWVRQAPGKGLEWVAIISHDERNKYYVDSGMGRFTISRDNSKNTLFLQMNSLRSEDTAVYYCARDMRKGGYYYGFDVWGQGTTVTVSSASTKGPSVFPLAPSSKSTSGGTAALGCLVKDYFPEPVTVSWNSGALTSGVHTFPAVLQSSGLYSLSSVVTVPSSSLGTQTYICNVNHKPSNTKVDK
heavy (part 2 of 2) 1: not shown
heavy (part 1 of 2) 2: not shown
heavy (part 2 of 2) 2: not shown
light: not shown
notes: also called PB27538p44; PB27538p33
B2: PB27538p46 (bispecific antibody)
heavy (part 1 of 2) 1: B1 heavy (part 1 of 2) 1
heavy (part 2 of 2) 1: not shown
heavy (part 1 of 2) 2: not shown
heavy (part 2 of 2) 2: not shown
light: not shown
notes: also called PB27538p36; MG1516C3211 x MG3462C3215
B3: PB27538p45 (bispecific antibody)
heavy (part 1 of 2) 1: B1 heavy (part 1 of 2) 1
heavy (part 2 of 2) 1: not shown
heavy (part 1 of 2) 2: not shown
heavy (part 2 of 2) 2: not shown
light: not shown
notes: also called PB27538p35; MG1516C3210 x MG3462C3215
B4: PB27538p52 (bispecific antibody)
heavy (part 1 of 2) 1: B1 heavy (part 1 of 2) 1
heavy (part 2 of 2) 1: not shown
heavy (part 1 of 2) 2: not shown
heavy (part 2 of 2) 2: not shown
light: not shown
notes: also called PB27538p42; MG1516C3209 x MG3462C3221
B5: PB27538p51 (bispecific antibody)
heavy (part 1 of 2) 1: B1 heavy (part 1 of 2) 1
heavy (part 2 of 2) 1: not shown
heavy (part 1 of 2) 2: not shown
heavy (part 2 of 2) 2: not shown
light: not shown
notes: also called PB27538p41; MG1516C3209 x MG3462C3219
B6: PB27538p48 (bispecific antibody)
heavy (part 1 of 2) 1: B1 heavy (part 1 of 2) 1
heavy (part 2 of 2) 1: not shown
heavy (part 1 of 2) 2: not shown
heavy (part 2 of 2) 2: not shown
light: not shown
notes: also called PB27538p38; MG1516C3209 x MG3462C3216
B7: PB27538p49 (bispecific antibody)
heavy (part 1 of 2) 1: B1 heavy (part 1 of 2) 1
heavy (part 2 of 2) 1: not shown
heavy (part 1 of 2) 2: not shown
heavy (part 2 of 2) 2: not shown
light: not shown
notes: also called PB27538p39; MG1516C3209 x MG3462C3217
B8: PB27538p50 (bispecific antibody)
heavy (part 1 of 2) 1: B1 heavy (part 1 of 2) 1
heavy (part 2 of 2) 1: not shown
heavy (part 1 of 2) 2: not shown
heavy (part 2 of 2) 2: not shown
light: not shown
notes: also called PB27538p40; MG1516C3209 x MG3462C3218

For the assay, the target named is c-MET (UniProt P08581 25-932). In words: ELISA on c-MET coated plates.
Sequence of c-MET (P08581 25-932 limits assumed): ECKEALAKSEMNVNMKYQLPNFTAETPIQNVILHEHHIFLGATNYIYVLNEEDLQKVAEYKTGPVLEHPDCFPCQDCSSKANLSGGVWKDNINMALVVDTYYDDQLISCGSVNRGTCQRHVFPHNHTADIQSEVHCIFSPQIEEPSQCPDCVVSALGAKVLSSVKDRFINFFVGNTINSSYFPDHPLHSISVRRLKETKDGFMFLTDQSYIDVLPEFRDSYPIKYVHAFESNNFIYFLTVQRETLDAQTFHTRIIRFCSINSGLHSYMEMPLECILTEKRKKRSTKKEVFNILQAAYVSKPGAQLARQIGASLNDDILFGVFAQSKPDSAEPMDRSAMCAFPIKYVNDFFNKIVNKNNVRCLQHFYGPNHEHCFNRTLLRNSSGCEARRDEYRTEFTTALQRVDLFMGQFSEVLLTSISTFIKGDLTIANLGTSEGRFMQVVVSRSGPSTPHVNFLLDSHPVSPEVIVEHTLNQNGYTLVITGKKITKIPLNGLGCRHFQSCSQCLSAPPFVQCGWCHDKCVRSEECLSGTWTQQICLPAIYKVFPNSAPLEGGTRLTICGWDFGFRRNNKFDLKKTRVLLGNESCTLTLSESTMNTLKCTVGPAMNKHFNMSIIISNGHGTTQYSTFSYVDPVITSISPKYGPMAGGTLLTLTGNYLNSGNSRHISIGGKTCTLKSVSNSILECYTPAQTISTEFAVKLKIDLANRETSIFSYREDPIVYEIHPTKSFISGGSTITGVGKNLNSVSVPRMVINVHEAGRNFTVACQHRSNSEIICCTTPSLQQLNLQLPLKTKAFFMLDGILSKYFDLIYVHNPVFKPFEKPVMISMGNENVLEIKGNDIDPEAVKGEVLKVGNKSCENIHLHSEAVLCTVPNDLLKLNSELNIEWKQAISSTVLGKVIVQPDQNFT
Consider B1, for which the binding result is “binds”.

On to B2, for which the binding result is given as “binds”.

For the molecule B3, the binding result is given as “binds”.

For B4, the binding result was “binds”.

Consider B5, for which the binding result is recorded as “binds”.

Consider B6, for which the binding result is reported as “binds”.

As for B7, the binding result is “binds”.

Take B8: the binding result was “binds”.
